Reference: patent US20070048315A1 (SCHERING, published 2007)
Several values for one entry are separate records, joined by “and”; a condition that tells them apart may be missing. Identical values can stand only once.

T1: "Non-linked" human IL-23 (human p40 coexpressed in 293T cells with human p19:FLAG-tag peptide) (human, UniProt P29460 23-328)
T1 sequence 1: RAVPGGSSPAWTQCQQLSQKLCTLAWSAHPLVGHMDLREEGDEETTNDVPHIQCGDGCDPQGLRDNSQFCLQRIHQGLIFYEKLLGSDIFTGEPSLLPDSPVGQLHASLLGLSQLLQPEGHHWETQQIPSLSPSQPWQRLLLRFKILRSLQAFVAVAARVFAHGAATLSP
T1 sequence 2: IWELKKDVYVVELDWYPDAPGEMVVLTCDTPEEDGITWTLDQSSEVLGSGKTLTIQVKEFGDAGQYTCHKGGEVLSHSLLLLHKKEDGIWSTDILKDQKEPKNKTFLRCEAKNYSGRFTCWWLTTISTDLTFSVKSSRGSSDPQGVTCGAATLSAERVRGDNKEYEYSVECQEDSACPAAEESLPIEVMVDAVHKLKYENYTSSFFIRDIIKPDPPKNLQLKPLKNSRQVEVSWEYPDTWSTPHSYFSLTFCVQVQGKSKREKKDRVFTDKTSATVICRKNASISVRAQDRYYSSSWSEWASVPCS

T2: non-tagged, non-linked native human IL-23p19/p40 coexpressed in SF9 cells (eBioscience CAT No. 34-8239) (human, UniProt P29460 23-328)
T2 sequence 1: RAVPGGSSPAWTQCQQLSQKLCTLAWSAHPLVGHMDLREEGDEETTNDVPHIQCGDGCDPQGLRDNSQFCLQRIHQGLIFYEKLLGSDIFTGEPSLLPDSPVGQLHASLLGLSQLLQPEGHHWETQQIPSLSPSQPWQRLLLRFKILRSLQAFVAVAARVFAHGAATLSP
T2 sequence 2: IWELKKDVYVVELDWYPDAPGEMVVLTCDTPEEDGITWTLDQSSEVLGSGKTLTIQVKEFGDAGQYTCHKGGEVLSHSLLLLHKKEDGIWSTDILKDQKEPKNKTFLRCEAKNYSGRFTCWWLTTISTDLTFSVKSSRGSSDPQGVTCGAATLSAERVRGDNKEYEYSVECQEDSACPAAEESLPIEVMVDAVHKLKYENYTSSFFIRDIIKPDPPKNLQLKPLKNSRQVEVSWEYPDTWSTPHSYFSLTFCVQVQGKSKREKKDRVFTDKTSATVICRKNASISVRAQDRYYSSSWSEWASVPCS


How the values were obtained:
Assay in all cases: cell-based or functional assay
[1] = target: "Elastikine" human IL-23 (single chain FLAG-tag peptide:GLU-tag peptide:human p40:elasti-linker:human p19, … (human, UniProt P29460 23-328))
[2] = target: T1, "Non-linked" human IL-23 (human p40 …)
[3] = target: T2, non-tagged, non-linked native human …
[4] = target: "Elastikine" human IL-23 (single chain FLAG-tag peptide:GLU-tag peptide:human p40:elasti-linker:human p19, … (human, UniProt P29460 23-328)); remark: listed apart in the source

| IC50 for blocking of Ba/F3 cell proliferation [1] [nM] | IC50 for blocking of Ba/F3 cell proliferation [2] [nM] | IC50 for blocking of Ba/F3 cell proliferation [3] | IC50 for blocking of Ba/F3 cell proliferation [4] | Binder |
| --- | --- | --- | --- | --- |
| 27 | 4000 | 3200 nM | – | humanized anti-human IL-23p19 antibody hum6H12 (antibody, human IgG1, kappa, V domains shown) VH: QVQLVQSGAEVKKPGASVKVSCKASGYTFNRYLIHWVRQAPGQGLEWMGYINPNNAGTNYNEKFKGRVTMTTDTSTSTAYMELRSLRSDDTAVYYCARNWDQAYWGQGTLVTVSS VL: DIQMTQSPSSLSASVGDRVTITCRASQSISDYLHWYQQKPGKAPKLLIYYTSQSISGVPSRFSGSGSGTDFTLTISSLQPEDFATYYCQNGHSFPFTFGQGTKVEIKR |
| – | 193 | 57 nM | 4 nM and 3 nM | mouse anti-human IL-23p19 antibody 33B12 (antibody, V domains shown) VH: QVQLQQSGAELARPGASVKLSCKASGYTFTSYSLKWVKQRTGQGLEWIGEIHPRSGNTHYNEKFKGKATLTADKSSSTAYMDLRSLTSEDSAVYFCATNWDLGYWGQGTTITVSS VL: DIVLTQSPATLSVTPGDRVSLSCRASQSISDYLHWFQQRSHESPRLLIKYASQSISGIPSRFSGSGSGSDFTLSINSVEPEDVGVYYCQNGHSFPFTFGSGTKLEIKR |
| – | 113 | 31 nM | 7 nM and 5 nM | mouse anti-human IL-23p19 antibody 13B5 (antibody, V domains shown) VH: EVQLQQSGPELVKPGASVKMSCKASGYTFTRYLMHWVKQKPGQGLEWIGYINPYNDGTNYNEKFKGKATLTSDKSSSTAYMELSSLTSEDSAVYYCARNWDVGGYWGQGTTLTVSS VL: DIVMTQSPATLSVTPGDRVSLSCRASQSISDYLHWYQQKSHESPRLLIKYASQSISGIPSRFSGSGSGSDFTLSINSVEPEDVGVYYCQNGHSFPFTFGSGTKLEIKR |

More lines, now with the values behind:

| Binder | IC50 for blocking of Ba/F3 cell proliferation [1] [nM] | IC50 for blocking of Ba/F3 cell proliferation [2] [nM] | IC50 for blocking of Ba/F3 cell proliferation [3] | IC50 for blocking of Ba/F3 cell proliferation [4] |
| --- | --- | --- | --- | --- |
| humanized anti-human IL-23p19 antibody hum7G10 (antibody, human IgG1, kappa, V domains shown) VH: QVQLVQSGAEVKKPGASVKVSCKASGYTFTSNVMHWVRQAPGQGLEWMGYINPYNDGTKYNEKFKGRVTMTTDTSTSTAYMELRSLRSDDTAVYYCARNWDVAYWGQGTLVTVSS VL: DIQMTQSPSSLSASVGDRVTITCRASQSISDYLHWYQQKPGKAPKLLIYYASQSISGVPSRFSGSGSGTDFTLTISSLQPEDFATYYCQNGHSFPFTFGQGTKVEIKR | 29 | 10000 | 7800 nM | – |
| mouse anti-human IL-23p19 antibody 7G10 (antibody, V domains shown) VH: EVQLQQSGPELVKPGASVKMSCKASGYTFTSNVMHWVKQKPGQGLEWIGYINPYNDGTKYNEKFKGKATLTSDKSSSTAYMELSSLTSEDSAVYYCARNWDVAYWGQGTLVTVSA VL: DIVMTQSPATLSVTPGDRVSLSCRASQSISDYLHWYRQKSHESPRLLIKYASQSISGIPSRFSGSGSGSDFTLSINSVEPEDVGVYYCQNGHSFPFTFGSGTKLEIKR | – | 3000 | – | 22 nM and 18 nM |
| mouse anti-human IL-23p19 antibody 6H12 (antibody, V domains shown) VH: EVHLQQSGPELVKPGASVKMSCKASGYTFNRYLIHWVKQKPGQGLEWIGYINPNNDGTNYNEKFKGKATLTSDKSSSTAYMELSSLTSEDSAVYYCAANWDQAYWGQGTLVTVSA VL: DIVMTQSPATLSVTPGDRVSLSCRASQSISDYLHWYQQKSHESPRLLIKYTSQSISGIPSRFSGSGSGSDFTLSINSVEPEDVGVYYCQNGHSFPFTFGSGTKLEIKR | – | 1500 | 1300 nM and 500 nM | 11 nM and 9 nM |
| mouse anti-human IL-23p19 antibody 39G2 (antibody, V domains shown) VH: QVQLQQPGAELVRPGASVKLSCKASGYSFTSSWMNWVKQRPGQGLEWIGMIHPSDSETRTNQKFKDKATLTVDKSSSTAYMQLSSPTSEDSAVYYCARGMITAPTVYWGQGTLVTVSA VL: DIVLTQSPASLAVSLGQRATISCRASKSVSTSAYSYFHWYQQKPGQPPKLLIYLASNLESGVPARFSGSGSGTDFTLNIHPVEEEDAATYYCQHSRELPWTFGGGTKLEITP | – | 67 | 11 nM | 9 nM and 5 nM |
| mouse anti-human IL-23p19 antibody 35F12 (antibody, V domains shown) VH: QVQLQQPGAELMRPGASVRLSCKASGYSFTTSWMNWVKQRPGQGLEWIGMIHPSDSETRLNQNFKDKATLTVDRSSSTAYMQLNSPTSEDSAVYYCARGMITAPSVYWGQGTLVTVSA VL: DIVLTQSPASLAVSLGQRATISCRASKSVSTSAYSYFHWYQQKPGQPPKLLIYLASNLESGVPARFSGSGSGTDFTLNIHPVEEGDAATYYCQHSRELPWTFGGGTKLEITR | – | 73 | 12 nM | 15 nM and 5 nM |
| mouse anti-human IL-23p19 antibody 3D7 (antibody, V domains shown) VH: QVQLQQSGPELVKPGASVKISCKASGYSFTSYYIHWVKQRPGQGLEWIGWIFPGSGNTKYNEKFKGKATLTADTSSTTAYMQLSSLTSEASAVYFCAREGLHYFGLYAMDYWGHGTSVTVSS VL: DIQMTQTTSSLSASLGDRVTISCSASQGISNYLNWFQQKPDGTVKLLIYYTSSLHSGVPSRFSGSGSGTDYSLTISNLEPEDIATYYCQQYSKLPYTFGGGTKLEIKR | – | 37 | 2 nM | 3 nM |
